In assay [1] the target is T1, Peptide_004 (human).
T1 construct: 15-mer on microarray; not native form, recombinant insert region
T1 peptide: AADVHSQHHHHHHHH
As to the kind of experiment: peptide microarray. The protocol: (§1) 5, 1, 0.2, 0.04, 0.008 and 0.0016 μg/mL serial dilutions were incubated on a single multi-well microarray slide at 30° C. for 1 hour. The slide includes 21 individual mini-arrays (one mini-array per sample dilution).
(§2) DyLight 650 was used as a label. False-positive binding to a peptide was evaluated by performing one additional control incubation in which only a secondary antibody was applied on the same microarray slide. Before performing each step, the microarrays were washed with a washing buffer.
(§3) MMC2 is the same as the average value of all three cases on a microarray except when the coefficient of variation (CV), which is the standard deviation divided by the average value, is larger than 0.5. In this case, the average of the two closest values (MC2) is assigned to MMC2. The thick black line in the heatmap indicates the culture of a control only using a secondary anti-mouse IgG antibody. The culture of individual antibody samples is indicated by a thin blue line. […] However, since Peptide_004 and Peptide_005 are not native forms, these peptides were excluded from an epitope candidate group.

For assay [2], the target named is T2, Peptide_005 (human).
T2 construct: 15-mer on microarray; not native form, recombinant insert region
T2 peptide: ADVHSQHHHHHHHHV
The experiment in a line: peptide microarray. The protocol:
as §1, §2, §3

Assay [3] addresses T1, Peptide_004. The experiment in a line: peptide microarray, head 0.08 ug (text 0.008 ug/mL). The protocol: as §1, §2
The target in assay [4] is T2, Peptide_005. The description is as above. As for the experimental part: as §1, §2
Assay [5] addresses T3, human thioredoxin-1 (Trx1) (human, UniProt P10599 1-105).
T3 construct: also called hTrx1; hTRX1
T3 sequence (looked up): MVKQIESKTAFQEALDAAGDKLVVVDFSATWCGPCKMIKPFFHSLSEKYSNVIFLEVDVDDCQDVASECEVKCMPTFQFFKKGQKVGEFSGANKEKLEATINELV
As to the kind of experiment: one site - total fit (Prism) of the ELISA of panel (a); the cell has no unit, the concentrations of panel (a) are in nM; paragraph 183 prints it rounded as 1.1x10^-11 [b]. The protocol:
100 μl of a coating buffer and 100 ng of Trx1 were mixed and dispensed to each well, and then reacted at 4° C. for 16 hours or more. After the reaction solution was removed, 200 μl of PBSA was dispensed to each well and reacted at 37° C. for 120 minutes. […] After the reaction solution was removed, washing was performed by dispensing 200 μl of a washing buffer to each well. The above-described process was performed two times.
After the reaction solution was removed, washing was performed by dispensing 200 μl of a washing buffer to each well. The above-described process was performed three times.
(In an ELISA, binding on a coated surface is turned into a signal by an enzyme label.)

Assay [6] concerns the target T4, Peptide_012 (human).
T4 construct: 15-mer on microarray; not native form, includes recombinant insert region
T4 peptide: HHHHHHHVKQIESKT
The experiment in a line: peptide microarray. The protocol:
as §1, §2, §3

Assay [7] has as its target T5, Peptide_018 (human).
T5 construct: 15-mer on microarray; not native form, includes recombinant insert region; also called HVKQIESKTAFQEAL
T5 peptide: HVKQIESKTAFQEAL
The experiment in a line: peptide microarray. The protocol:
as §1, §2, §3

The target in assay [8] is T4, Peptide_012. The experiment in a line: peptide microarray, head 0.08 ug (text 0.008 ug/mL). As for the experimental part: as §1, §2
Assay [9] concerns the target T6, Peptide_013 (human).
T6 construct: 15-mer on microarray; not native form, includes recombinant insert region
T6 peptide: HHHHHHVKQIESKTA
The assay is described as above. The protocol: as §1, §2

Assay [10] has as its target T7, Peptide_014 (human).
T7 construct: 15-mer on microarray; not native form, includes recombinant insert region
T7 peptide: HHHHHVKQIESKTAF
The assay is described as above. As for the experimental part: as §1, §2

In assay [11] the target is T8, Peptide_015 (human).
T8 construct: 15-mer on microarray; not native form, includes recombinant insert region
T8 peptide: HHHHVKQIESKTAFQ
The description is as above. The protocol:
as §1, §2

For assay [12], the target named is T5, Peptide_018. The description is as above. The protocol: as §1, §2
Assay [13] has as its target T9, Peptide_019 (human).
T9 construct: 15-mer of hTrx1 on microarray
T9 peptide: VKQIESKTAFQEALD
The description is as above. The protocol: as §1, §2

The target of assay [14] is T10, Peptide_020 (human).
T10 construct: 15-mer of hTrx1 on microarray
T10 peptide: KQIESKTAFQEALDA
The assay is described as above. The protocol: as §1, §2

The target in assay [15] is T11, Peptide_021 (human).
T11 construct: 15-mer of hTrx1 on microarray
T11 peptide: QIESKTAFQEALDAA
Described as above. As for the experimental part: as §1, §2

The target in assay [16] is T12, Peptide_023 (human).
T12 construct: 15-mer of hTrx1 on microarray
T12 peptide: ESKTAFQEALDAAGD
The assay is described as above. The protocol: as §1, §2

For assay [17], the target named is T13, Peptide_024 (human).
T13 construct: 15-mer of hTrx1 on microarray
T13 peptide: SKTAFQEALDAAGDK
The description is as above. As for the experimental part: as §1, §2

The target of assay [18] is T14, Peptide_025 (human).
T14 construct: 15-mer of hTrx1 on microarray
T14 peptide: KTAFQEALDAAGDKL
Described as above. As for the experimental part:
as §1, §2

Assay [19] concerns the target T15, Peptide_045 (human).
T15 construct: 15-mer of hTrx1 on microarray
T15 peptide: SATWCGPCKMIKPFF
The assay is described as above. The protocol: as §1, §2

Assay [20] addresses T16, Peptide_051 (human).
T16 construct: 15-mer of hTrx1 on microarray
T16 peptide: PCKMIKPFFHSLSEK
Described as above. As for the experimental part: as §1, §2

The target in assay [21] is T17, Peptide_084 (human).
T17 construct: 15-mer of hTrx1 on microarray
T17 peptide: SECEVKCMPTFQFFK
Described as above. The protocol: as §1, §2

For assay [22], the target named is T18, Peptide_085 (human).
T18 construct: 15-mer of hTrx1 on microarray
T18 peptide: ECEVKCMPTFQFFKK
The description is as above. As for the experimental part:
as §1, §2

The target in assay [23] is T19, Peptide_086 (human).
T19 construct: 15-mer of hTrx1 on microarray
T19 peptide: CEVKCMPTFQFFKKG
The description is as above. As for the experimental part: as §1, §2

Assay [24] deals with T20, Peptide_092 (human).
T20 construct: 15-mer of hTrx1 on microarray
T20 peptide: PTFQFFKKGQKVGEF
Described as above. The protocol: as §1, §2

Assay [25] addresses T21, Peptide_093 (human).
T21 construct: 15-mer of hTrx1 on microarray
T21 peptide: TFQFFKKGQKVGEFS
The assay is described as above. The protocol:
as §1, §2

For assay [26], the target named is T22, Peptide_094 (human).
T22 construct: 15-mer of hTrx1 on microarray
T22 peptide: FQFFKKGQKVGEFSG
Described as above. The protocol:
as §1, §2

Assay [27] concerns the target T23, Peptide_095 (human).
T23 construct: 15-mer of hTrx1 on microarray
T23 peptide: QFFKKGQKVGEFSGA
Described as above. The protocol:
as §1, §2

B1: monoclonal antibody B266-1 (antibody, human IgG1)
light: QIVLTQSPAIMSASPGEKVTMTCSASSRISYMYWYQQKPGTSPKRWIYDTSKLASGVPARFSGSGSGTSYSLTISTMEAEDAATYYCHQRSSYPTFGAGTKLELKSVAAPSVFIFPPSDEQLKSGTASVVCLLNNFYPREAKVQWKVDNALQSGNSQESVTEQDSKDSTYSLSSTLTLSKADYEKHKVYACEVTHQGLSSPVTKSFNRGEC
heavy: not shown
notes: B266 with the Fc part changed to human IgG1; also called B266-1 (Trx1-hIgG1); B266-1 (hTrx1-hIgG1)
By Kd is commonly meant a measure of binding affinity in units of concentration. Low values mean higher affinity, high ones lower affinity. For B1, the “signal, fold of the average background level” value in assay [1] and in [2] was about 8 fold in each case. The “signal (blank-control = 1)” value in assay [3] amounted to 1; in assay [4] it was 1.28. The molecule also showed a Kd in [5] of 0.0112 nM.

B2: monoclonal antibody B264 (antibody, mouse IgG1, kappa, V domains shown)
VH: QVQLQQSGAELARPGASVKMSCKASGYTFTSYTMHWVKQRPGQGLEWIGYINPTSDYTNYNQKFKDKATLTADKSSSTAYMQLSSLTSEDSAVYFCASEGGFLYYFDYWGQGTTLTVSS
VL: DVLMTQTPLSLPVSLGDQASISCRSSQSIVHSNGNTYLEWYLQKPGQSPKLLIYKVSNRFSGVPDRFSGSGSGTDFTLKISRVEAEDLGVYYCFQGSHVPYTFGGGTKLEIKR
notes: also called AB264; B264 (Trx1-mIgG1)
Take B2: the “signal, fold of the average background level” value in assay [6] and in assay [7] was about 7 fold each time. Moreover, the “signal (blank-control = 1)” value in assay [8] worked out at 0.88; in assay [9], 0.95; in assay [10] it was 1.14; in assay [11] it was 0.79; in [12], 0.85; in assay [13] it was 1.02. Also, the “signal (blank-control = 1)” value turned out to be 0.8 in assay [14]; 0.84 in assay [15]; 0.91 in assay [16]; 1 in assay [17]; 1.03 in [18]; 5.89 in assay [19]. For the same molecule, the “signal (blank-control = 1)” value in assay [20] was 0.7; in assay [21], 1.33; in [22], 0.9; in assay [23], 1.02; in assay [24], 3.07; in assay [25], 1.53. In addition, the “signal (blank-control = 1)” value in [26] turned out to be 1; in assay [27], 1.15.

Source of the values: patent publication US20240192215A1 (E AND S HEALTHCARE, published 2024).
